In US20070219129A1, “hsp90 decoy peptides and uses thereof” (priority 2005, published 2007):
“Also recorded” adds a separate entry of the source. Ends that are not written are not given here.

How the values were obtained:
B16 melanoma cells = test: Viability of B16 melanoma cells in culture (LDH release); assay type: cell-based; conditions: even at 100 μg/mL
murine facialis arteries = test: ACh-induced vasodilation of isolated, pressurized facialis arteries after acute peptide exposure; parameters: species or system C57BL/6 mice; conditions: 10 μg/mL, 10 min pre-treatment, vs vehicle control
From the text: The B2 peptide was also shortened to 15 aa (AELVLEVPLEHPTLE) with the TAT PTD (RKKRRQRRR) added at the N-terminal as described by Pagano and associates.^6 (Note that the initial A residue is a linker.) This redesign made a new decoy peptide (RKKRRQRRR-AELVLEVPLEHPTLE), which we called TSB2. In designing a control peptide, TSB(Ctr) (RKKRRQRRR-AALVLAVPLAHPRLA), we reasoned that if E were important for binding, then replacing E with A would result in a peptide that would fail to bind to hsp90 or another heatshock protein essential to chaperone-dependent signaling and possibly mitochondrial function and therefore fail to impair vasodilation. To test these ideas, TSB2 and TSB(Ctr) (10 μg/mL) were incubated with separatefacialis arteries from healthy C57BL/6 male mice, whose vasodilation is mediated 100% by eNOS.^9 Ten minutes later, excess peptides were removed by changing the buffer and ACh-dose response curves of the preconstricted and pressurized vessels determined as before.^9

[1] = biological target: T1, heat shock protein 90 (hsp90), endogenous in bovine aortic endothelial cells (BAEC) (bovine, UniProt A0AAA9SQM8); test: peptide at 10 ug/mL in BAEC lysate, eNOS immunoprecipitation, western blot for hsp90
[2] = biological target: T1, heat shock protein 90 (hsp90), …; test: eNOS immunoprecipitation from treated BAEC cultures, western blot for hsp90 (FIG. 2)

Row | Molecule | percent decrease of hsp90 association with eNOS [1] | also measured
1 | RKKRRQRRRAELVLEVPLEHPTLE [TSB2, RKKRRQRRR-AELVLEVPLEHPTLE] |  | viability of B16 melanoma cells (LDH release) (B16 melanoma cells): no significant effects; also recorded: no direct effect
2 | RKKRRQRRR-AALVLAVPLAHPRLA [TSB(Ctr)] |  | effect on ACh-induced vasodilation (in words) (murine facialis arteries): no effect
3 | APELFVLPPELVLEVPLEHP [B2 (301-320)] | ~80% | 
4 | LPLLLQAPDEAPELFVLPPE [B1 (291-311)] | ~80% | 
5 | LVLEVPLEHPTLEWFAALGL [B3 (311-330)] | ~80% | 
6 | RKKRRQRRRAELVLEVPLEHPTLE [TSB2] |  | hsp90 association with eNOS relative to PEP1-treated or untreated cultures [2]: 0.25 fraction of control level
